Test results published in publication doi:10.1101/2020.07.09.195545.
Read-outs that look alike come from different tables or passages of the source.

Columns and labels:
[1] = target: T1, rLCRF-SBP (Chlamydomonas reinhardtii, UniProt A0A2K3E5K7 866-1032); experiment: EMSA
[2] = target: T1, rLCRF-SBP; experiment: EMSA; remark: listed apart in the source

| Binder | binding result [1] | binding result [2] |
| --- | --- | --- |
| mutated GTAC-consensus 30 bp (shuffled core) (dsDNA) DNA 1: GTCGCCACTGCGAGATCCACTGAGAGATCG DNA 2: CGATCTCTCAGTGGATCTCGCAGTGGCGAC | no binding | – |
| GTAC-consensus 30 bp (dsDNA) DNA 1: GTCGCCGTACCGAGATCCGTACAGAGATCG DNA 2: CGATCTCTGTACGGATCTCGGTACGGCGAC | – | binds |
